For data set [1], the target named is α-actin purified from rabbit skeletal muscle, globular (G-actin) form (UniProt P68135).
Data set [2] addresses DNase I (Sigma, St. Louis, Mo.). Briefly: cell-based or functional assay.

Experimental findings from patent publication US6649364 are described below.

Turning to DNase I (Sigma, St. Louis, Mo.), in data set [1], the “DNase I digestion of plasmid DNA (agarose gel)” value was “preincubation of DNase I with intact actin (1.5 µg) for 5 minutes markedly reduced its ability to digest the plasmid”.

In data set [2], actin cleaved for 90 minutes by ICE displayed a DNase I digestion of plasmid DNA (agarose gel): level of inhibition against diluted intact actin of 5 fold and a DNase I digestion of plasmid DNA (agarose gel): reduction in DNase I inhibition of 80%.
